Data as given in patent publication US20220265772A1, “USES OF DAN FAMILY BMP ANTAGONISTS FOR INHIBITING OCULAR NEOVASCULARIZATION AND TREATING OCULAR CONDITIONS” (9636137 Canada Inc., priority 2019, published 2022).

Columns and labels:
VEGF signaling = VEGF signaling and VEGF receptor levels in HUVECs (immunoblotting); assay type: cell-based, human
Experimental: FIG. 6A: HUVECs were grown in complete media were in the absence or presence of Dand5 or IWR1 for up to 24 hours. Protein extracts were analyzed by immunoblotting (representative image of n=3 experiments). FIG. 6C: HUVECs were grown in low serum media for 16 h in the absence or presence of 60 ng/mL of Dand5. VEGF signaling was induced by addition of 25 ng/mL of rhVEGF for up to 60 minutes. Protein extracts were analyzed by immunoblotting (representative image of n=3). FIG. 6D: Quantification of the mean gray value of phosphorylated proteins normalized to the mean gray value of β-Actin of immunoblots in FIG. 6C (n=3, ns). FIG. 6E: HUVECs were plated in the presence or absence of 60 ng/mL of Dand5. Proteins extracts were analyzed for expression of VEGF receptors (representative image of n=3).
Cells were washed with cold PBS and extracted in Laemmli's buffer, followed by sonication. Samples were run on SDS-PAGE gels and transferred onto nitrocellulose membranes. Membranes were blocked with 5% Bovine Serum Albumin (BSA) and probed with primary antibodies overnight at 4° C.: beta-Catenin (Cell Signaling Technology), phospho-beta-catenin (Cell Signaling Technology), Axin2 (Cell Signaling Technology), beta-Actin (Santa Cruz Technologies). HRP-conjugated secondary antibodies (Vector Laboratories) were used to detect primary antibodies.
HUVECs were starved overnight in the presence or absence of DAND5, followed by VEGF stimulation for up to 60 minutes. […] Likewise, VEGFR2 and VEGFR1 levels were unaffected upon HUVECs exposure to DAND5 for 0.5-24 h (FIG. 6 E, F).

HUVECs [1] = assay: Endothelial cell proliferation (phospho-histone H3, neutral red, EdU flow cytometry); assay type: cell-based, human
Experimental: Sub-confluent HUVECs were cultured overnight in starvation medium (EBM2-1% FBS) in the presence or absence of 60 ng/ml DAND5, followed by VEGF stimulation for 1 hour. HUVECs were subjected with a pulse of 5-ethynyl-2′-deoxyuridine (EdU) for 1 hour, and flow cytometry analysis of EdU incorporation was performed as previously described.
The effects of DAND5 on EC proliferation were assessed by treating sub-confluent HUVECs with complete EC medium for 18 hours with DAND5. Cell mitosis was measured by evaluating the proportion phospho-histone H3 (PH3)-positive ECs following DAND5 treatment.

HUVECs [2] = assay: Free radicals / ROS in HUVECs (DCFDA, MitoSoxRed); assay type: cell-based, human; conditions: HUVECs
Experimental: FIG. 8 is a panel with graphs and pictures showing that Dand5 induces mitochondrial oxidative stress and alters ATP levels in HUVECs. FIG. 8A: HUVEC cells were treated with Dand5 in the presence or not of N-acetylcysteine (NAC) for up to 48 hours. Cells were then incubated with H2DCFDA. Hydrogen peroxide treated cells (H2O2) were included as a positive control. Fluorescence was measured at Ex: 485 nm and Em: 535 nm in a plate reader. Relative Fluorescence Units (RFU) were generated by normalizing the reading of each well to Hoescht staining (n=3,*p<0.05 **p<0.001). FIG. 8B: HUVEC cells were treated with Dand5 in for up to 48 hours. Cells were incubated with MitoSox Red. 3-nitro-proprionic acid (3-NP) treated cells were also examined as a positive control. Fluorescence was measured at Ex: 544 nm and Em: 590 nm. Relative Fluorescence Units (RFU) were generated by normalizing the reading of each well to Hoescht staining (n=3,*p<0.05). FIG. 8C: Primary culture of choroidal sprouts were treated with Dand5 in the absence or presence of NAC. FIG. 8D: Quantification of sprouting area by Image J. FIG. 8E: The ratio of NAD+ to NADH in whole cell extracts was determined using an Alcohol Dehydrogenase/Malate Dehydrogenase enzymatic cycling assay. Cells treated to hypoxic conditions (4% O2 for 3 hours) were included as a positive control (n=3,*p<0.05, **p<0.01). Likewise, glucose uptake was reduced in Dand5-treated HUVECs after 1 hour, while lactate levels were increased (lower panel). FIG. 8F: ATP levels were reduced in HUVECs exposed to Dand5 at 1, 6 and 24 hours (n=3,*p=0.05).
We exposed or not HUVECs to recombinant DAND5 and measured the concentration of free radicals using DCFDA and MitoSoxRed™. […] To further test this, we measure the NAD+/NADH ratio in cells treated or not with DAND5. […] Likewise, glucose uptake was reduced and lactate levels were increased in DAND5-treated HUVECs after 1 h (FIG. 8E, lower panel).

[3] = tested on: human pluripotent stem cells / stem cell-derived human cones; conditions: cited from earlier work

- VEGFR2 phosphorylation at Y1175 (VEGF signaling; HUVECs cultured in the presence of DAND5): unaffected
- VEGFR2 and VEGFR1 levels (VEGF signaling; HUVECs exposed for 0.5-24 h): unaffected
B1: DAND5: human recombinant DAND5/COCO biologically active fragment produced in E. coli, predicted 18.2 kDa monomer, R&D systems 3047-CC-050 (protein)
chain: MRPEPQSPRPQSWAAANQTWALGPGALPPLVPASALGSWKAFLGLQKARQLGMGRLQRGQDEVAAVTLPLNPQEVIQGMCKAVPFVQVFSRPGCSAIRLRNHLCFGHCSSLYIPGSDPTPLVLCNSCMPARKRWAPVVLWCLTGSSASRRRVKISTMLIEGCHCSPKA
- VEGF-induced phosphorylation of VEGF downstream effectors (VEGF signaling; HUVECs starved overnight with DAND5, VEGF stimulation up to 60 minutes): no significant decrease in VEGF-induced phosphorylation of VEGF downstream effectors
- EdU incorporation (HUVECs [1]; HUVECs, 60 ng/ml DAND5 overnight, VEGF stimulation): reduced Edu incorporation in response to VEGF stimulation
- proliferation of cultured ECs, cell numbers by neutral red incorporation (HUVECs [1]; HUVECs, 6 days): prevented the proliferation of cultured ECs
- phospho-histone H3 (PH3) staining, mitotic index (HUVECs [1]; sub-confluent HUVECs, complete EC medium, 18 hours): significant decrease in PH3 staining
- free radicals (DCFDA) (HUVECs [2]; 24 h and 48 h post-treatment): induced elevation of free radicals 24 h and 48 h post-treatment
- mitochondrial reactive oxygen species (MitoSoxRed), time course (HUVECs [2]; time-course analysis): induced before cytosolic ROS
- cone photoreceptor differentiation and maintenance ([3]; recent study (16)): potent inducer of cone photoreceptor differentiation and maintenance
- differentiation of human pluripotent stem cells into cone photoreceptors ([3]; reference (16)): can promote the differentiation of human pluripotent stem cells into cone photoreceptors
